Results taken from PMC12494784 (Nature Communications, 2025).
Changes are numbered by the printed parent chain. Names may count otherwise.

B1: truncated Xenopus laevis KCNQ1 (residues 67-610), wild type (domain or fragment)
chain: ATDPPRPTINLDPRVSIYSGRRPLLSRTNIQGRVYNFLERPTGWKCFVYHFTVFLIVLICLIFSVLSTIQQYNNLATETLFWMEIVLVVFFGAEYVVRLWSAGCRSKYVGVWGRLRFARKPISVIDLIVVVASVIVLCVGSNGQVFATSAIRGIRFLQILRMLHVDRQGGTWRLLGSVVFIHRQELITTLYIGFLGLIFSSYFVYLAEKDAIDSSGEYQFGSYADALWWGVVTVTTIGYGDKVPQTWIGKTIASCFSVFAISFFALPAGILGSGFALKVQQKQRQKHFNRQIPAAASLIQTAWRCYAAENPDSATWKIYIRKQSRNHHLMSPSPKPKKSAMVKKKKIRTERDEGSTDKMLNIPHITYDHVADDRKNDGYSVESYENTVRKPFGFLDPSTGPFIRTSSFTDDLDMEGDTLLTPITHISELKEHHRAAIKVIRRMQYFVAKKKFQQARKPYDVRDVIEQYSQGHLNLMVRIKELQRRLDQSLGKPSLFLSVSDKVKDKGINTIGSRLNRVEDKVTQMDHKLNLITDMLHHLLTNQQ
B2: Xenopus KCNQ1 E150R/R221E (residues 67-610) (domain or fragment)
chain: B1 chain with E84R, R155E

Assays:
[1] = target: calmodulin (UniProt P0DP23); experiment: cryo-EM structure
[2] = target: the molecule itself; experiment: cryo-EM structure

Binder	binding result [1]	stoichiometry N [2]
B1	binds	4
B2	binds	–
